Holding throughout (test): BLI, IgG
(Biolayer interferometry detects binding as a change in optical thickness at a sensor tip.)

Assay [1] deals with T1, RSV postfusion F (postF), subtype B (respiratory syncytial virus, subtype B).
T1 construct: also called F ΔFP; Postfusion subtype B

For assay [2], the target named is T2, RSV postfusion F (postF), subtype A (respiratory syncytial virus, subtype A, UniProt P03420 26-513).
T2 construct: also called F ΔFP; Postfusion subtype A

Assay [3] deals with RSV prefusion F (preF), subtype A (respiratory syncytial virus, subtype A, UniProt P03420 26-513).
The target in assay [4] is RSV prefusion F (preF), subtype B (respiratory syncytial virus, subtype B).

Where a chain is given by its changes, count along the chain named.

B1: ADI-14417 (antibody, V domains shown)
VH: EVQLVESGGGLVKPGGSLRLSCAASGFSFSSYSMHWVRQAPGKGLEWVSSISGSSTYIYHADSVKGRFTISRDNAERSLHLQMNSLRAEDTAVYYCARDPYSSGWLDSWGQGTLVTVSS
VL: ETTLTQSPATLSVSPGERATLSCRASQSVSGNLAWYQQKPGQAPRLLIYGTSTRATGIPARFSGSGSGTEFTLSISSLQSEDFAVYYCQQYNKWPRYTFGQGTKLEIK
notes: also called Ab 83
B1: the Kd worked out at 3.99 nM in assay [1] and 1.63 nM in assay [2]. In addition, in assay [3], the binding result was “no binding”.

B2: ADI-14405 (antibody, V domains shown)
VH: QVQLVQSGTEVKKPGASVKVSCKASGYTFTNYDISWVRQAPGQGLEWMGWISGSTGNTIYAQNLQGRLTMTTDTSTSTAYMELRSLRSDDTAIYYCARDNVGYASGNYFDYWGQGTLVTVSS
VL: SYVLTQPPSVSVAPGKTARIPCGGNNIGSKSVHWYQQRPGQAPVLVIYYDSVRPSGIPERFSGSNSGNTATLTISTVEAGDEADFYCQVWDSSRDHEVFGGGTKLTVL
notes: also called Ab 71
On to B2, for which the Kd in assay [1] came out at 38 nM; in assay [2], 11.7 nM; in assay [3], 0.142 nM; in assay [4], 0.227 nM.

B3: ADI-14594 (antibody, V domains shown)
VH: QVQLVQSGAEVKKPGASVKLSCKASGYTFTTYTINWVRQAPGQGLEWMGWISGYNGNTDYAQKLQGRFTMTTDTSTNTAYMELRSLTSDDTAVYYCAKGGGGSESYFDYWGQGTLVTVSS
VL: SYELTQPPSVSVAPGKTARISCGGNNIGSKSVHWYQQKPGQAPVLVIYYDRDRPSGIPERFSGSNSGNTATLTISRVEAGDEADYYCQLWDRSSDHPYVFGTGTKVTVL
For B3, the Kd in assay [1] was 0.214 nM; in assay [2], 0.257 nM; in assay [4] it was 18.2 nM. Besides, the binding result in assay [3] is recorded as “no binding”.

B4: ADI-14590 (antibody, V domains shown)
VH: EVQLVESGAEVKKPGESLKISCKGSGYSFATYWIGWVRQMPGKGLEWMGIIYPGDSDTRYSPSFQGQVTISADKSISTAYLQWSSLKASDTAIYYCARAKLPVAGLYYFDYWGQGTLVTVSS
VL: DIQLTQSPSSLSASVGDRVTITCRASQGISSTLAWYQQKPGKAPKLLIYDASSLESGVPSRFSGSGSGTDFTLTISSLHPEDFATYYCQQFNTYPTFGGGTKVEIK
B4: the Kd came to 0.967 nM in assay [1], 2.68 nM in assay [2], 13.2 nM in assay [3] and 5.99 nM in assay [4].

B5: ADI-14573 (antibody, V domains shown)
VH: QVQLVQSGAEVKKPGASVKVSCKASGYTFTTYGISWVRQAPGQGLEWMGWISTYKTYTNYAQKFQGRVTMTTDTSTSTAYMELRSLRSDDTAVYYCAKVAGGSGSYGDYWGQGTLVTVSS
VL: QPVLTQPPSVSVAPGKTARITCGGNNIGSKSVHWYLQKPGQAPVLVIYYDSDRPSGIPERFSGSNSGNTATLTISRVEAGDEADFFCQVWDSSSDHWVFGGGTKVTVL
In the case of B5, the Kd in assay [1] was found to be 3.55 nM; in assay [2] it was 0.373 nM; in assay [4], 21 nM. Besides, the binding result in assay [3] is “no binding”.

B6: ADI-14393 (antibody, V domains shown)
VH: QVQLVESGGGLVKPGGSLRLSCAASGFSFTGFYMNWVRQAPGKGLEWVSSISSSSTYKNYADSLQGRFTISRDNARSSLYLQMNSLRAEDTAVYYCARTRTEYTYGYYHDFWGQGTLVTVSS
VL: QPVLTQPPSVSGAPGQRVTISCTGSSSNIGAGYDVHWYQQVPGTAPKLLIYNNNNRPSGVPDRFSGSKSGTSASLAITGLQAEDEADYYCQSYDSRLSGVFGGGTKLTVL
notes: also called Ab 60
Turning to B6, the Kd in assay [1] stood at 11.7 nM; in assay [3], 0.311 nM; in assay [4], 0.474 nM. In addition, in assay [2], the binding result is “no binding”.

B7: ADI-21040 (antibody, V domains shown)
VH: EVQLLESGPGLVKPSGTPSLTCAVSGVSITNSNNWWTWVRQPPGKGLEWIGEIYSSGSTNYSPSLKSRVTISLDKSKNQFSLKLSSVTAADTAVYYCARVLGYYGSGGGHLHSWGPGTLVTVSS
VL: SYELTQPPSASGTPGQRVTISCSGSSSNIGAGYDVHWYQQLPGTAPKLLISVNSNRPSGVPDRFSGSKSGTSASLAITGLQAEDEANYYCQSYDNSLSGYVVFGGGTKLTVL
As to B7, the Kd turned out to be 1.03 nM in assay [1] and 0.777 nM in assay [2]. Besides, the binding result in assay [3] is given as “no binding”.

B8: ADI-14595 (antibody, V domains shown)
VH: EVQLLESGGGLVQPGGSLRLSCAASGFTFSIYSMNWVRQAPGKGLEWISYISRSGSTIFYADSVKGRFTISRDDAKNSLFLQMTSLRDADTAVYYCARVDCSNNKCYDYWGQGTLVTVSS
VL: DIQLTQSPATLSLSPGERATLSCRASQSISSFLAWYQQKPGQAPRLLIYDASKRATGTPARFSGGGSGRDFTLTISSLEPEDFAVYYCQQRSSWPLYTFGQGTKVEIK
Regarding B8, the Kd in assay [1] was found to be 14.4 nM; in assay [2] it was 1.3 nM; in assay [3], 2.19 nM; in assay [4], 16 nM.

B9: ADI-21053 (antibody, V domains shown)
VH: QVQLQESGPGLVKPSQTLSLTCTVSGVSISNSSGGYYWSWIRQHPGKGLEWIGYIYYSGSTYYNPSSGSTYYNPSLKSRVTVSVDTSKNQFSLKLTSVTAADTAVYYCARDIRGPHKHSLYNWFHPWGQGTLVTVSS
VL: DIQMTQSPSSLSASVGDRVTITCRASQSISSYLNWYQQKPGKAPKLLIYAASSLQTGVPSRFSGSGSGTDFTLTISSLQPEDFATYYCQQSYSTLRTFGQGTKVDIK
Consider B9, for which the Kd in assay [1] was determined as 118 nM; in assay [2], 6.37 nM; in assay [3], 71 nM.

B10: ADI-14589 (antibody, V domains shown)
VH: QITLKESGPVLVKPSETLTLTCTVSGFSLSNAKMGVSWIRQPPGKALEWLAHIFSNDEKSYNTSLKNRLTISKDTSKSQVVLTMTNMDTVDTATYYCARINYYDSSGYYLANFDYWGQGTLVTVSS
VL: NIRLTQSPSSLSASVGDRVTITCRASQRIASYLNWYQQKPGHAPKLLIHAASSLQSGVPSRFSGSGSGTDFTLTINSLLPEDFATYYCQQSYSSPPHSSPPLTFGGGTKVEIK
As for B10, the Kd in assay [1] came to 15.4 nM; in assay [2] it was 0.596 nM; in assay [3], 6.48 nM; in assay [4] it was 28.2 nM.

B11: ADI-14416 (antibody, V domains shown)
VH: QVQLVQSGAEVKKPGESLKISCKGSGDTFSRNWIGWVRQMPGKGLEWMGIIWPGDSDTRYRQFFQGQQGQVIISVDKSISTAYLQWSSLKASDTATYYCATSPYGLGSYYEHWGQGTLVTVSS
VL: NFMLTQPHSLSDSPGKTVVISCTRSSGSIASNYVQWYQQRPGSAPTTVIYEDNQRPSGVPDRFSGSIDSSSNSASLTISGLKTEDEADYYCQSYDSSNPYVFGTGTKVTVL
notes: also called Ab 82
Turning to B11, the Kd in assay [1] came out at 0.106 nM; in assay [2], 0.182 nM; in assay [3] it was 2.39 nM; in assay [4] it was 0.369 nM.

B12: ADI-14606 (antibody, V domains shown)
VH: QVQLVQSGGGLVQPGGSLRLSCAASGFTVSSNYMGWVRQAPGKGLEWVSVIYTGGSTYYADSVKGRFTISRDNFKNTLYLQMNSLRAEDTALYYCARDLYSSGWFGYWGQGTLVTVSS
VL: DIRLTQSPATLSVSPGERATLSCRASQSVSINLGWFQQKPGQSPRLLIYGTSTRATGIPARFSGSGSGTEFTLTISSLQSEDFAVYYCHQYNNWPYTFGQGTKVEIK
B12: the Kd in assay [1] stood at 0.659 nM; in assay [2] it was 1.28 nM. For the same molecule, in assay [3], the binding result is “no binding”.

B13: ADI-14421 (antibody, V domains shown)
VH: QVQLVQSGAEVKKPGESLKISCKGSGYNSSINWIGYWIGWVRQMPGKGLEWMGIINPGDSDTRYSPSFQGQVTISVDKSISTAYLQWGSLKASDTAMYYCARRAYRSGWHFDLWGRGTLVTVSS
VL: EIVMTQSPATLSVSPGERATLTCRASQSVSSNLAWYQQKPGQAPRLLIYGASTRATGIPARFSGSGSGTQFTLTISSLQSEDFAVYYCQHYNNWPPYTFGQGTKVEIK
notes: also called Ab 87
On to B13, for which the figures for the Kd in assay [1], in assay [2] and in assay [4] were 0.74 nM, 1.07 nM and 2.82 nM, respectively. Further, in assay [3], the binding result is recorded as “no binding”.

B14: ADI-14592 (antibody, V domains shown)
VH: QVQLVQSGAEVKKPGESLKISCKGSGYTFTNYWIGWVRQMPGKGLEWMGIIYPDDSDTRYSPSFQGQVTISVDKSINTAYLQWSSLRASDTAIYYCACSNWPHYFDSWGQGTLVTVSS
VL: NFMLTQPHSVSESPGKTVTISCTRSSGNIAGNYVQWYQQRPGSAPTTVIYEDNQRPSGVPDRFSGSIDSSSNSASLTISGLKTEDEAVYYCQSYHPGNWVFGGGTKLTVL
With B14, the Kd in assay [1] was found to be 0.0932 nM; in assay [2], 0.136 nM; in assay [3], 2.4 nM; in assay [4] it was 0.301 nM.

B15: ADI-14593 (antibody, V domains shown)
VH: QVQLVQSGAEVKKPGESLKISCKGSGYSFSSYWVAWVRQMPGKGLEWMGIIYPADSDTRYSPSFQGQVTISADKSDSTAYLQWGSLKASDTAMYYCARSLYGSGDYFDYWGQGTLVTVSS
VL: B14 VL with K16R, T19I, N28S, G31T, V88D, H95G, P96S, N98D, W99V, L107V
For the molecule B15, the Kd in assay [1] is 0.108 nM; in assay [2] it was 0.161 nM; in assay [3], 2.33 nM; in assay [4], 0.358 nM.

B16: ADI-14418 (antibody, V domains shown)
VH: QVQLVQSGAEVKKPGSSVKVSCKASGGTFTNYNINWVRQAPGQGLQWMGRISPTFAIANYAQKFQGRVTITADKSTSTAYMELSSLRSEDTAVYYCARAPHSGYDLALDYWGQGTLVTVSS
VL: DIQMTQSPSTLSASVGDRVTITCRASQSISSWLAWYQQKPGKAPKLLIYEASSLQSGVPSRFSGSGSGTEFTLTITSLQPDDFATYYCQQYNVYPWTFGQGTKVDIK
notes: also called Ab 84
Regarding B16, the Kd in assay [1] is 0.258 nM; in assay [2], 0.441 nM; in assay [3], 1.25 nM; in assay [4] it was 1.58 nM.

B17: ADI-14406 (antibody, V domains shown)
VH: QVQLVQSGAEVKKPGESLKISCKGSGYKFTNYWIAWVRQMPGKGLEWLGVIYPGASDITYSPSFQGQVTISADKSISTAYLQWSSLKASDTAIYYCARQGSITAMSYWGQGTMVTVSS
VL: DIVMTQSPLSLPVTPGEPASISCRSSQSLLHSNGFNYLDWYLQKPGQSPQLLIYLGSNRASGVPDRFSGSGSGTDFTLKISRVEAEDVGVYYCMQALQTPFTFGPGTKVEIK
notes: also called Ab 72
Consider B17, for which the Kd in assay [1] was determined as 0.473 nM; in assay [2], 0.339 nM; in assay [3], 6.85 nM; in assay [4] it was 0.906 nM.

B18: ADI-14425 (antibody, V domains shown)
VH: QVQLQESGPGLVKPSETLSLTCTVSGGSVRSGSYYWSWIRQPPGKALEWIGYIYYSGSTNYNPALESRVTISVDTSKNQFSLMLSSVTAADTAVYYCARSAEGLARLYYFDHWGQGTLVTVSS
VL: QSVLIQPASVSGSPGQSITISCTGTSSDVGGYNYVSWYQQHPGKAPKLMIHDVSNRPSGVSNRFSGSKSGNTASLTISGLQAEDEADYYCSTYRSSNTLVVFGGGTKLTVL
notes: also called Ab 91
Consider B18, for which the Kd was found to be 9.34 nM in assay [1], 0.742 nM in assay [2], 48.1 nM in assay [3] and 20.3 nM in assay [4].

As usually defined, the Kd is a measure of binding affinity in units of concentration. Read a high Kd as weaker binding.

Source of the values: US20260258115A1 (MAPP BIOPHARMACEUTICAL, published 2026).
